Measurements as given in PMC11169033.

Substrate: CN(C)c1ccc(/C=C/c2cc[n+](C)cc2)cc1
Assay: saturation of fluorescent uptake in hOCT2-HEK293 cells (affinity, control condition)
Type: cell-based, Homo sapiens

B1: human organic cation transporter 2 (hOCT2) (Homo sapiens) (protein)
chain: MPTTVDDVLEHGGEFHFFQKQMFFLLALLSATFAPIYVGIVFLGFTPDHRCRSPGVAELSLRCGWSPAEELNYTVPGPGPAGEASPRQCRRYEVDWNQSTFDCVDPLASLDTNRSRLPLGPCRDGWVYETPGSSIVTEFNLVCANSWMLDLFQSSVNVGFFIGSMSIGYIADRFGRKLCLLTTVLINAAAGVLMAISPTYTWMLIFRLIQGLVSKAGWLIGYILITEFVGRRYRRTVGIFYQVAYTVGLLVLAGVAYALPHWRWLQFTVSLPNFFFLLYYWCIPESPRWLISQNKNAEAMRIIKHIAKKNGKSLPASLQRLRLEEETGKKLNPSFLDLVRTPQIRKHTMILMYNWFTSSVLYQGLIMHMGLAGDNIYLDFFYSALVEFPAAFMIILTIDRIGRRYPWAASNMVAGAACLASVFIPGDLQWLKIIISCLGRMGITMAYEIVCLVNAELYPTFIRNLGVHICSSMCDIGGIITPFLVYRLTNIWLELPLMVFGVLGLVAGGLVLLLPETKGKALPETIEEAENMQRPRKNKEKMIYLQVQKLDIPLN
notes: hOCT2 stably expressed in HEK293 cells
Km: 20.5 µM
